The chains are these.
B1: construct encoded by pTG19968: [N-terminus]-[collagen domain(12)]-[coiled-coil neck domain]-[CD40L] (ligand)
chain: AEMKTYSHRTMPSACTLVMCSSVESGQAGPVGPKGDNGSVGEPGPKGDTGPSGPPGPPGVPDVASLRQQVEALQGQVQHLQAAFSQYKKVENPQIAAHVISEASSKTTSVLQWAEKGYYTMSNNLVTLENGKQLTVKRQGLYYIYAQVTFCSNREASSQAPFIASLCLKSPGRFERILLRAANTHSSAKPCGQQSIHLGGVFELQPGASVFVNVTDPSQVSHGTGFTSFGLLKL
B2: construct encoded by pTG19325: fusion protein SPD (M1-G257, P35247 numbering)-CD40L (H47 to L261 from P29965 numbering) (ligand)
chain: AEMKTYSHRTMPSACTLVMCSSVESGLPGRDGRDGREGPRGEKGDPGLPGAAGQAGMPGQAGPVGPKGDNGSVGEPGPKGDTGPSGPPGPPGVPGPAGREGPLGKQGNIGPQGKPGPKGEAGPKGEVGAPGMQGSAGARGLAGPKGERGVPGERGVPGNTGAAGSAGAMGPQGSPGARGPPGLKGDKGIPGDKGAKGESGLPDVASLRQQVEALQGQVQHLQAAFSQYKKVELFPNGHRRLDKIEDERNLHEDFVFMKTIQRCNTGERSLSLLNCEEIKSQFEGFVKDIMLNKEETKKENSFEMQKGDQNPQIAAHVISEASSKTTSVLQWAEKGYYTMSNNLVTLENGKQLTVKRQGLYYIYAQVTFCSNREASSQAPFIASLCLKSPGRFERILLRAANTHSSAKPCGQQSIHLGGVFELQPGASVFVNVTDPSQVSHGTGFTSFGLLKL
notes: Tested as clarified, unpurified supernatant of infected/transfected HeLa cells; concentration unknown; The construct begins at M1 of SPD, so the entry may include the native signal peptide; The form range is that of the CD40L part
B3: construct encoded by pTG20041: [N-terminus]-[collagen domain(12bis)]-[coiled-coil neck domain]-[CD40L] (ligand)
chain: AEMKTYSHRTMPSACTLVMCSSVESGPLGKQGNIGPQGKPGPKGEAGPKGEVGAPGMQGSADVASLRQQVEALQGQVQHLQAAFSQYKKVENPQIAAHVISEASSKTTSVLQWAEKGYYTMSNNLVTLENGKQLTVKRQGLYYIYAQVTFCSNREASSQAPFIASLCLKSPGRFERILLRAANTHSSAKPCGQQSIHLGGVFELQPGASVFVNVTDPSQVSHGTGFTSFGLLKL
notes: Tested as clarified HeLa supernatant
B4: construct encoded by pTG19969: [N-terminus]-[collagen domain(12)]-[coiled-coil neck domain]-[linker]-[CD40L] (ligand)
chain: AEMKTYSHRTMPSACTLVMCSSVESGQAGPVGPKGDNGSVGEPGPKGDTGPSGPPGPPGVPDVASLRQQVEALQGQVQHLQAAFSQYKKVEGGGSGGGSGGGSNPQIAAHVISEASSKTTSVLQWAEKGYYTMSNNLVTLENGKQLTVKRQGLYYIYAQVTFCSNREASSQAPFIASLCLKSPGRFERILLRAANTHSSAKPCGQQSIHLGGVFELQPGASVFVNVTDPSQVSHGTGFTSFGLLKL
B5: construct encoded by pTG20038: [N-terminus]-[collagen domain(6 + N-Gly)]-[coiled-coil neck domain]-[CD40L] (ligand)
chain: AEMKTYSHRTMPSACTLVMCSSVESGQAGPVGPKGDNGSVGEPDVASLRQQVEALQGQVQHLQAAFSQYKKVENPQIAAHVISEASSKTTSVLQWAEKGYYTMSNNLVTLENGKQLTVKRQGLYYIYAQVTFCSNREASSQAPFIASLCLKSPGRFERILLRAANTHSSAKPCGQQSIHLGGVFELQPGASVFVNVTDPSQVSHGTGFTSFGLLKL
notes: as for B3
B6: construct encoded by pTG20039: [N-terminus]-[collagen domain(6 - N-Gly)]-[coiled-coil neck domain]-[CD40L] (ligand)
chain: B5 chain with Q27P, A28K, P30D, V31T, K34S, D36P, N37P, S39P, V40P, E42V
notes: as for B3
B7: construct encoded by pTG20042: [N-terminus]-[collagen domain(30)]-[coiled-coil neck domain]-[CD40L] (ligand)
chain: AEMKTYSHRTMPSACTLVMCSSVESGLPGRDGRDGREGPRGEKGDPGLPGAAGQAGMPGQAGPVGPKGDNGSVGEPGPKGDTGPSGPPGPPGVPGPAGREGPLGKQGNIGPQGKPDVASLRQQVEALQGQVQHLQAAFSQYKKVENPQIAAHVISEASSKTTSVLQWAEKGYYTMSNNLVTLENGKQLTVKRQGLYYIYAQVTFCSNREASSQAPFIASLCLKSPGRFERILLRAANTHSSAKPCGQQSIHLGGVFELQPGASVFVNVTDPSQVSHGTGFTSFGLLKL
notes: as for B3
B8: construct encoded by pTG19967: [N-terminus]-[coiled-coil neck domain]-[linker]-[CD40L] (ligand)
chain: AEMKTYSHRTMPSACTLVMCSSVESDVASLRQQVEALQGQVQHLQAAFSQYKKVEGGGSGGGSGGGSNPQIAAHVISEASSKTTSVLQWAEKGYYTMSNNLVTLENGKQLTVKRQGLYYIYAQVTFCSNREASSQAPFIASLCLKSPGRFERILLRAANTHSSAKPCGQQSIHLGGVFELQPGASVFVNVTDPSQVSHGTGFTSFGLLKL
B9: construct encoded by pTG19966: [N-terminus]-[coiled-coil neck domain]-[CD40L] (ligand)
chain: AEMKTYSHRTMPSACTLVMCSSVESDVASLRQQVEALQGQVQHLQAAFSQYKKVENPQIAAHVISEASSKTTSVLQWAEKGYYTMSNNLVTLENGKQLTVKRQGLYYIYAQVTFCSNREASSQAPFIASLCLKSPGRFERILLRAANTHSSAKPCGQQSIHLGGVFELQPGASVFVNVTDPSQVSHGTGFTSFGLLKL
notes: Tested as clarified HeLa supernatant, oligomeric state mixed; It was detected by anti-FLAG immunoblot

The values below come from patent US20260015405A1 (TRANSGENE, published 2026).

Positions count from the first letter of the chain named.

T1 sequence (P25942 21-193 limits assumed): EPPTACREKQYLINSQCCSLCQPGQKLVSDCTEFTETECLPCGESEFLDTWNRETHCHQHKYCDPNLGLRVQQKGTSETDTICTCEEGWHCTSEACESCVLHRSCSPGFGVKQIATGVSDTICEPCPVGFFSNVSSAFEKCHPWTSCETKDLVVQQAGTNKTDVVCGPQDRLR

The experiment concerns the target T1, CD40-Fc (immobilized recombinant human CD40) (human, UniProt P25942 21-193, limits assumed).
T1 construct: Coated on the ELISA plate
Briefly: ELISA, CD40-Fc coated, HeLa supernatant, detection with non-competitive anti-CD40L. (ELISA stands for enzyme-linked immunosorbent assay.)
Turning to B1, the binding result was “binds”. As for B2, the binding result was “binds”. To B3 belongs “binds”; to B4, “binds”; to B5, “binds”. On to B6, for which the binding result is “binds”. B7: the binding result is “binds”.

Take B8: the binding result is on record as “binds”.

For B9, the binding result is listed as “binds”.
